Legend:
Assay in all cases: IEDB peptide-MHC binding, purified MHC/competitive/radioactivity; ≥ and ≤ were set here for values at or beyond the usual limits of such assays
Conditions in all cases: source organism: Hepatitis delta virus
HLA-B*44:03 = biological target: HLA-B*44:03
HLA-B*44:02 = biological target: HLA-B*44:02
HLA-B*18:01 = biological target: HLA-B*18:01
HLA-B*52:01 = biological target: HLA-B*52:01
HLA-B*07:02 = biological target: HLA-B*07:02
HLA-A*02:05 = biological target: HLA-A*02:05
HLA-B*35:01 = biological target: HLA-B*35:01
HLA-B*58:01 = biological target: HLA-B*58:01
HLA-B*27:05 = biological target: HLA-B*27:05

Sequence | IC50 (HLA-B*52:01) [µM] | IC50 (HLA-B*07:02) [µM] | IC50 (HLA-A*02:05) [µM] | IC50 (HLA-B*35:01) [µM] | also measured
DDNPWLGNI | – | – | – | – | IC50 (HLA-B*44:03): 9.19 µM; IC50 (HLA-B*44:02): 35.1 µM; IC50 (HLA-B*18:01): ≥ 50 µM
DRGFPWDILF | 4.68 | ≥ 50 | ≥ 50 | ≥ 50 | –
EENLWLGNI | – | – | – | – | IC50 (HLA-B*44:03): 0.217 µM; IC50 (HLA-B*44:02): 0.468 µM; IC50 (HLA-B*18:01): 1.99 µM
FPWDILFPA | – | 0.096 | 9.37 | 0.0057 | –
FPWDILFPS | – | 13.5 | 11.7 | 0.027 | –
FPWDLLFPA | – | 0.467 | 4.16 | 0.018 | –
FPWDMLFPA | – | 0.43 | 5.74 | 0.0017 | –
NQGIPWDILF | 1.47 | ≥ 50 | 7.17 | ≥ 50 | –
QGFPWDILF | 0.018 | 44.3 | 9.63 | 0.118 | –
QGFPWDLLF | 0.135 | ≥ 50 | 3.41 | 0.213 | –
RGDREFPW | – | – | – | – | IC50 (HLA-B*58:01): 0.195 µM
RGSQGFPW | – | – | – | – | IC50 (HLA-B*58:01): 0.014 µM
RRKALENKR | – | – | – | – | IC50 (HLA-B*27:05): 0.109 µM
RRKALENKS | – | – | – | – | IC50 (HLA-B*27:05): 13.6 µM
SQGFPWDILF | 3.66 | ≥ 50 | 3.12 | ≥ 50 | –
TGRQGFPW | – | – | – | – | IC50 (HLA-B*58:01): 1.55 µM

From the Immune Epitope Database (IEDB)
